From the DeepSol protein solubility set

Experiment: soluble on expression in E. coli; label from the status in PepcDB or PDB records

Sequence | soluble on expression in E. coli
SLIFILGIFYYLTQPLKSNSVVFIPQGSISQIITYLKQNKYQMSNIDKYILFFLGHPQSGWINIGTKDLNRAEFLHKLTIAKAALQTITLIPGETSVIFLEQAAKQLGLDKDILLKEFQAQAPYDEGVFLPETYKIPKGITENLLIQMLLNHAEISNKKTSEKIFGDYNPKKWHQYIIIASVIQKEAANDNEMPIVASVIYNRLKKGMKLQMDGTLNYGIYSHVKVTPQRIRQDNSFYNTYKFTGLPKEAVCNVSLAAIRAAIFPLKTDYLYFVRDKNTGVHIFSTNIDDHNKAINLQKGK | soluble
MLNFLSISSEPKIKSLAIGKFDGLHLGHQALFKELKDPKALLIIEKKHYTKGYLTPLKYRAKLVGMPLFFVYLEEISQLNALDFLDLLKKKFPHLERLVVGYDFRFGHERQNDALFLKERFEKTIIVPEVKVQEISVHSKMIKLALSHGDLSLANKLLGRPYEVCGEVISDQGLGHKELAPTLNIKTKDFILPSFGVYASLVKIKDPIYQKSVSFIGNRLSTDQNFAIECHVLDTIIENPPQEIALRWVQKIRDNMRFSSLKELKNQIQQDILRAKEILR | not soluble
MCSLLKLLKISGKSVSDDDPIERYIKCEQCKCKRHWVEQLQRDEMDQMLHRLQFENKQLRKELEWKRGAASTMEIDRSSKRHQERHQSESRGGTLPLRNGRSVVSLKSTQSQNDVMDEAKALRLHKQRLEHRSRILEQQNEQLEMQLQRLKKVIDAQKQQAPLSTNSLLRGSHHQPWSPERARSGSASTLDRGLIVSSRHQEQAEAAGGGAEDSSDEAGGAGGGPRGSSVGQMQNLMTACDDLGKAMESLVVSVVYDSDDEEND | not soluble
MGSDKIHHHHHHMCQHSIANIDINKDYDESLGTEEVHYQSFSRMAAFFGRDMQAHRHDRYFQMHYLDTGQIELQLDDHRYSVQAPLFVITPPSVPHAFITESDSDGHVLTVHEELIWPLLEVLYPGTRETFGLPGICLSLADKPDELAALAHYWQLIRRESTAQLPGREHTLALLAQAVFTLLLRNAKLDDHAASGMRGELKLFQRFNQMIDSHYHQHWTVPDYARELHLTESRLTDICRRFANRPPKRLIFDRQLREAKRLLLFSDSAVNEIAWQLGFKDPAYFARFFSRQVGCSPSSYRAQKVPVS | not soluble
MDAELLEIYNFLAKYPPFNELPEETLTKVTESVEISYYRQDTPIIHFGDHIQDLFVVRSGVVEVYRRKGELYNRLDEGDLFGQMGLLTNNKVRFPVKAIEDTLLYCIPVEVFQEIYDNFDSFADFVEVENSARLRQTISENKDANDLTTSKVKTLLTGDAPTINRGQTIQQAAQLMAQDNISSLLIVDPDFVLDEDDPQSPVLGIITDRDLCTRVLAEGLSPQDDVSTVMTTEVISLDHNAYIYEAMLTMLRYNVHHLPVVKNQLPIGIIETTDIVRYESQNSLLLVSSIFQQQSIEDLATVAEEVKSSFVRLVNEDANSHMVGSAMSVIGRSFKQRLLELAEEELGAPPIPYCFLALGSMGRDEQLLVTDQDNAIILDESYQEEKHGKYFEDLAKFVSDGLDACGYKYCTGDIMATNPMWRMTRSEWEECFADWIDDPNPKALLNASIFFDLDGVYGRLKWAEQLTSFIVRRARKNNRFLACLARNALNRTPPLGFFKDFVMEKDGQHKNSINLKRRGTAPLVDLIRVHALAVGSRAQNSFERLDDIIDAGILPKGRAQDLKDALEFISMVRIRHQATDVELGIEPDNNIEPENLSDFERRNLKDAFQILSNGQNFLKFRYQANKSFK | not soluble
MSLSTIGSMMSIYSEAGDFGNIFVTGRIAFSLKYEQQTQSLVVHVKECHQLAYADEAKKRSNPYVKTYLLPDKSRQGKRKTSIKRDTVNPLYDETLRYEIPESLLAQRTLQFSVWHHGRFGRNTFLGEAEIQMDSWKLDKKLDHCLPLHGKISAESPTGLPSHKGELVVSLKYIPASKTPVGGDRKKSKGGEGGELQVWIKEAKNLTAAKAGGTSDSFVKGYLLPMRNKASKRKTPVMKKTLNPHYNHTFVYNGVRLEDLQHMCLELTVWDREPLASNDFLGGVRLGVGTGISNGEVVDWMDSTGEEVSLWQKMRQYEGHHHHHH | not soluble
MNNKEKGDFGEKVAVNYLLSKGAKILEKNYRLKIGEIDIIAKMEDEIIFVEVKSRSNIKFGYPCESVSFKKRKKIIGVASYYIIKNNLNNTPIRFDVIEVYLLEKRINHIMNAF | not soluble
MDKLGLSKRGYFDFALKNKKWILLAVSGYGAFRVYHSPSISQKRKRISKLFTLLLNLIEAASDSAETVSVISKDLTEFLRSDSDQIPNSLKQISKIAKSDELNSSLIRFTQAMTVGLIRGIDDGSGSGFTDRVMDKLFTKSGSGFASAIVGSFARNLVVALYSSAGDGSNSKLLDAVFSDDGRRLIGDCVQRFVSTAVSVYLDKTSDVNVFDDLFAGLTNPKHEGKVKQTLVTLCNSAVETFVRASRKPVQLNRSSSCQDSSQTLTVGSTKQATWIDRVSSSLSVPSNRKYVVDLTGRVTFETVRSLLEVLIERANGKVESYVEKVRERGNETRRFVRVKTSLLHSLCLSLCLQIVEAPWMLTPRN | not soluble
MAHHHHHHMNVALIFGITGQDGSYLSELLLEKGYTVHGVIRRCSSFNTKRIDHIFDQLNLHYGDVLDSSSICKLISKIKPHEIYNLAAQSHVKVSFELPVYTAETTAVGTLRILEAIKISNLPDVKFYNASTSELFGSSTDDRQHESTPFNPVSPYAIAKLYSHYITICYRKSYQMFCVNGILFNHESPRRGETFVTRKITRGVANICKNRQNCLVLGDLSTYRDWGHAKDYVRAMYLMLQQDEPDDFVISSNEKHTVKEFCEISFSFVGIFLKWKGTGIQEVGVDQHDRVLIKKDPRYYRECDVFHLHGDSSKARQKLQWAPTYSFFQLIYEMLTYDFEQCSLPIDDFDTCVSRYENYRGVPTK | not soluble
TTKKRVFHFGKGKSEGNKTMKELLGGKGANLAEMASIGLSVPPGFTVSTEACQQYQDAGCALPAGLWAEIVDGLQWVEEYMGATLGDPQRPLLLSVRSGAAVSMPGMMDTVLNLGLNDEVAAGLAAKSGERFAYDSFRRFLDMFGNVVMDIPRSLFEEKLEHMKESKGLKNDTDLTASDLKELVGQYKEVYLSAKGEPFPSDPKKQLELAVLAVFNSWESPRAKKYRSINQITGLRGTAVNVQCMVFGNMGNTSGTGVLFTRNPNTGEKKLYGEFLVNAQGEDVVAGIRTPEDLDAMKNLMPQAYDELVENCNILESHYKEMQDIEFTVQENRLWMLQCRTGKRTGKSAVKIAVDMVNEGLVEPRSAIKMVEPGHLDQLLHPQFENPSAYKDQVIATGLPASPGAAVGQVVFTAEDAEAWHSQGKAAILVRAETSPEDVGGMHAAVGILTERGGMTSHAAVVARGWGKCCVSGCSGIRVNDAEKLVTIGGHVLREGEWLSLNGSTGEVILGKQPLSPPALSGDLGTFMAWVDDVRKLKVLANADTPDDALTARNNGAQGIGLCRTEHMFFASDERIKAVRQMIMAPTLELRQQALDRLLPYQRSDFEGIFRAMDGLPVTIRLLDPPLHEFLPEGNIEDIVSELCAETGANQEDALARIEKLSEVNPMLGFRGCRLGISYPELTEMQARAIFEAAIAMTNQGVQVFPEIMVPLVGTPQELGHQVTLIRQVAEKVFANVGKTIGYKVGTMIEIPRAALVADEIAEQAEFFSFGTNDLTQMTFGYSRDDVGKFIPVYLAQGILQHDPFEVLDQRGVGELVKFATERGRKARPNLKVGICGEHGGEPSSVAFFAKAGLDYVSCSPFRVPIARLAAAQVLV | soluble
MANKGIVPVKISLTEGDFYTLWAPQWREHGAEWQAFLGSGDDLYVFESPAAVLAYIESGARHDLSDHPKWGAFMAGADDRVVPTDRQEYDLIGVPALLAERPSHTNVSAVARCFAITRSLGDVTATIPVQSFFSSHSILMNTERGGNHFTGDSGLGEWTGIGRIVLTSWNNVIDALDSAITVHTDGNAEAISAAAARIDAATAEAEQRRIAEEKKKKADAEKVDPYDATPWAAAGIDPIKISIDGRTVYTLRTYIEAQPVFLGKYGEIFTFNSGKSLVRWLVEHDDHDLARVSTWEDLMVPVNAGELDITVHPDNVYSFNGLTRDINTSVEAVDTAQMARAYELLADAADWAADDSLNSYFLTNPRMQDYISYMIGSTRVSGYTPTPPFTEHSESWAEMEKMLTKRFSKF | not soluble
MSLGLPKMEVFQEYYGLPPPPGAIGPFLRLNPGDIVELTKAEAEQNWWEGRNTSTNEIGWFPCNRVKPYVHGPPQDLSVHLWYAGPMERAGAESILANRSDGTFLVRQRVKDAAEFAISIKYNVEVKHIKIMTAEGLYRITEKKAFRGLTELVEFYQQNSLKDCFKSLDTTLQFPFKEPEKRTISRPAVGSTKYFGTAKARYDFCARDRSELSLKEGDIIKILNKKGQQGWWRGEIYGRVGWFPANYVEEDYSEEGHHHHHH | soluble
MYKYISNELPQFFENGMLRFTQPGQFNDPFELLPRYVDFMGENTKQYILDNIEVLVKEIPQNEPWYIKLIPMSIKVFAIRLLLTSNHKRVKKVTDEIDAFGLSVANGQYRDIIDQSYGILCLSAKEDSLLMWSHYGNSHKGYVIEFDTSHKFFNQVIPNKKTGGVLDYAGTPLKVTYTKRRKTILFWQKAMSEVFLTKGSDWEYEQEYRMVLPLETSTEVVNGNIHLFHIPFDAVKSIIFGAKCEDEFIQNSIAKIHHWDSKHIDFQLFQFNLSDNDFELVRKKI | soluble
MTVSTPPSIATGNAPSPDYRVEILSESLPFIQKFRGKTIVVKYGGAAMTSPELKSSVVSDLVLLACVGLRPILVHGGGPDINRYLKQLNIPAEFRDGLRVTDATTMEIVSMVLVGKVNKNLVSLINAAGATAVGLSGHDGRLLTARPVPNSAQLGFVGEVARVDPSVLRPLVDYGYIPVIASVAADDSGQAYNINADTVAGELAAALGAEKLILLTDVAGILENKEDPSSLIKEIDIKGVKKMIEDGKVAGGMIPKVKCCIRSLAQGVKTASIIDGRRQHSLLHEIMSDEGAGTMITG | soluble
MGIHKPKFYAVRAGRDKGVFSSWEECRKAIYGFSGAVYRSFPTLEEAQAWFKGETLSDPLKAEDDSLRDDRTEYDVYTDGSYVNGQYAWAYAFVKDGKVHYEDADVGKNPAAATMRNVAGEIAAALYAVKKASQLGVKIRILHDYAGIAFWATGEWKAKNEFTQAYAKLMNQYRGIYSFEKVKAHSGNEFNDYVDMKAKSALGIRDLEHHHHHH | not soluble
MGKNVVVLGTQWGDEGKGKVVDLLTERAKYVVRYQGGHNAGHTLVINGEKTVLHLIPSGILRENVISIIGNGVVLAPDALMKEMTELEARGVPVRERLLLSEACPLILPYHVALDNAREKARGAKAIGTTGRGIGPAYEDKVARRGLRVSDLFNKETFAIKLKEIVEYHNFQLVHYYKEAAVDYQKVLDDVLAIADILTAMVVDVSELLDNARKQGELIMFEGAQGTLLDIDHGTYPYVTSSNTTAGGVATGSGLGPRYVDYVLGIVKAYSTRVGAGPFPTELNDETGEFLRKQGNEYGATTGRSRRTGWLDIVAVRRAVQINSLSGFCMTKLDVLDGLKEVKLCVGYRMPDGREVDTTPLAAEGWEGIEPIYETMPGWSETTFGVKEHSKLPQAALNYIQRVEELTGVPIDIISTGPDRDETMILRDPFDA | soluble
AIAAHVSSETQDVSPKDELTASEASTRSPLCEHTFPGDSDLRSMIEEHAFQVLSQGSLLESPSYTVCVSEPDKDDDFLSLNFPRKLWKIVESDQFKSISWDENGTCIVINEELFKKEILETKAPYRIFQTDAIKSFVRQLNLYGFSKIQQNFQRSAFLATFLSEEKESSVLSKLHVFVFHHSLFGATFGEHHFQPCPLPSGNKAPISTWSGDSWLL | soluble
